Measured values: the emibetuzumab library of Makowski et al. (2022)

B1: VH:VL chains; a variant is named by its letters at X, in order (parent)
chain 1: QVQLVQSGAEVKKPGASVKVSCKASGYTFTDYXMHWVRQAPGQGLEWMGXVNPNXXXTTYNQKFEGRVTMTTDTSTSTAYMELRSLRSDDTAVYYCARXNXLDXWGQGTTVTVSS
chain 2: DIQMTQSPSSLSASVGDRVTITCSVSSSVSSIYLHWYQQKPGKAPKLLIYSTSNLASGVPSRFSGSGSGTDFTLTISSLQPEDFATYYCQVYSGYPLTFGGGTKVEIK

Variants of: B1
Assay: yeast display scFab, FACS + sequencing
Procedure, shortened: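 Heavy-chain CDR mutant scFab yeast surface library, FACS-sorted after labelling with biotinylated ovalbumin (260 μg/mL in PBSB, 3 h, room temperature) or soluble membrane proteins (130 μg/mL, 20 min on ice), plus anti-Myc. Gates collected the top 25% and bottom 10% of binders, and samples from two replicates were deep sequenced. Non-specific binding call: a sequence was positive if found in ≥3 of 4 positive samples (membrane protein and ovalbumin pooled) and no negatives, and negative by the converse rule.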

Variant	non-specific binding call
YRRGGSLS	binds
YRRGSFAA	binds
VRRKSSSV	binds
YRRGGALA	binds
YRRGGALV	binds
YRRGGALD	binds
YRRRGALY	binds
YRRRGALS	binds
YRRRGALA	binds
YRRRGALF	binds
VRRKDFLA	binds
YRRGGFVV	binds
ARRRGSGA	binds
YRRKGSVD	binds
VRRGGSGS	binds
VRRGGSGD	binds
YRRGSAWA	binds
FRRGGSGS	binds
FRRGGSGV	binds
SRRRGALD	binds
YRRRGDVY	binds
YRRRGDVD	binds
YRRRGDVV	binds
YRRRGAWA	binds

Variant	non-specific binding call
YRRRGAWS	binds
YRRRGAWV	binds
YRRRGAWF	binds
YRRRGAWD	binds
VRRRGAVV	binds
YRRRGDGY	binds
YRRRGDGV	binds
YRRRGDGD	binds
YRRRGDLD	binds
YRRGGYAV	binds
YRRGGDGA	binds
VRRGSSLF	binds
YRRGSAGF	binds
YRRGSAGS	binds
YRRRGSLF	binds
YRRRGSLS	binds
YRRRGSLV	binds
YRRRGSLY	binds
YRRRGSLA	binds
YRRRGSLD	binds
FRRRGSAD	binds
FRRRGSAA	binds
YRRRGDWY	binds
YRRRGDWA	binds

Variant	non-specific binding call
YRRRGDWD	binds
FRRGGSAD	binds
FRRGGSAA	binds
FRRGGSAF	binds
FRRRGAWA	binds
FRRRGAWY	binds
YRRRGDAD	binds
YRRRGDAA	binds
YRRGGASD	binds
YRRGGASA	binds
VRRRGSAF	binds
FRRGSSAA	binds
FRRGSSAV	binds
SRRGSASS	binds
VRRRGALA	binds
VRRRGALD	binds
YRRKGSGY	binds
YRRKGSGA	binds
YRRGGSSA	binds
YRRGSSGF	binds
YRRGSSGS	binds
YRRGSSGA	binds
VRRRGSLF	binds
VRRGSASD	binds

Variant	non-specific binding call
FRRRGSLY	binds
FRRRGSLV	binds
FRRRGAAA	binds
FRRRGAAD	binds
FRRGSALA	binds
VRRRGSGD	binds
YRRRGFVA	binds
YRRRGFVD	binds
YRRRGFVV	binds
VRRGSDGV	no binding
ARRRGSAA	binds
YRRKGAAY	binds
FRRRGDWY	binds
SRRRGSAA	binds
YRRRGAAD	binds
YRRRGAAY	binds
YRRRGAAS	binds
YRRRGAAF	binds
YRRRGAAA	binds
YRRRGFAV	binds
YRRRGFAA	binds
VRRGGAWV	binds
VRRRGAAD	binds
YRRRGSAS	binds

Variant	non-specific binding call
YRRRGSAD	binds
YRRRGSAF	binds
ARRRGAWY	binds
FRRKDDWA	binds
FRRRGSGD	binds
ARRGGSGF	binds
ARRGGSGS	binds
YRRGGAWD	binds
YRRGGAWV	binds
YRRGGAWY	binds
YRRGGAWS	binds
YRRGGAWA	binds
YRRGSSSA	binds
YRRGSSSV	binds
YRRGSVGV	binds
YRRGSVGA	binds
VRRGGSAA	binds
YRRRGASS	binds
YRRRGASV	binds
YRRRGASD	binds
YRRRGASF	binds
YRRRGASA	binds
YRRKGASV	binds
FRRRDAAF	binds

Variant	non-specific binding call
VRRGSAGD	binds
VRRGSAGS	binds
VRRRGAGD	binds
VRRRGAGV	binds
YRRGSSLS	binds
YRRGSSLY	binds
YRRGSSLV	binds
YRRGSSLF	binds
YRRKGDAD	binds
VRRGSSGD	binds
YRRKGAGD	binds
YRRKGSSS	binds
YRRKGSSA	binds
YRRGSALY	binds
YRRGSALS	binds
DRRGSDAV	no binding
YRRRGSWA	binds
YRRRGSWV	binds
YRRRGSWS	binds
YRRRGSWD	binds
YRRGGAGV	binds
YRRGGAGY	binds
YRRGGAGF	binds
YRRGTSVD	binds

Variant	non-specific binding call
DRRRGSGA	binds
YRRKDALA	binds
YRRGGYVD	binds
YRRRGSVS	binds
YRRRGSVV	binds
YRRRGSVF	binds
YRRRGSVD	binds
YRRRGSVA	binds
YRRGSAVA	binds
YRRGSAVD	binds
YRRGSAVY	binds
ARRRGAAA	binds
YRRGSASD	binds
YRRGSASV	binds
YRRGSASS	binds
VRRGGALD	binds
YRRRGSSA	binds
YRRRGSSF	binds
YRRRGSSS	binds
YRRRGSSD	binds
ARRGSDLA	no binding
VRRGSSAS	binds
VRRGSSAF	binds
VRRGSSAV	binds

Variant	non-specific binding call
VRRGSSAD	binds
YRRGGSGD	binds
YRRGGSGA	binds
YRRGGSGY	binds
YRRGGSGS	binds
YRRGGAVS	binds
YRRGGAVA	binds
YRRKGALV	binds
YRRRDSSA	binds
FRRRGALD	binds
FRRRGSSD	binds
VRRGSFGA	binds
YRRRGFWY	binds
YRRGSSAA	binds
YRRGSSAV	binds
YRRGGVGV	binds
YRRGGVGA	binds
VRRGSSVV	binds
VRRGSSVS	binds
YRRRGSGS	binds
YRRRGSGA	binds
YRRRGSGY	binds
YRRRGSGF	binds
YRRRGSGV	binds

Variant	non-specific binding call
YRRGGFGV	binds
YRRGGFGA	binds
YRRGSYVY	binds
YRRGGSWD	binds
YRRGGSWV	binds
ARRGSAVS	binds
SRRGGYVS	binds
YRRRGFGY	binds
YRRRGFGD	binds
YRRRGFGS	binds
YRRRGFGA	binds
YRRRGFGV	binds
YRRGGAAY	binds
YRRGGAAA	binds
YRRGGAAD	binds
YRRGGAAF	binds
YRRGGAAS	binds
YRRGGAAV	binds
FRRGGAGY	binds
FRRGGAGD	binds
FRRGGSLD	binds
FRRGGAVD	binds
FRRGGAVV	binds
YRRRGAGA	binds

Variant	non-specific binding call
YRRRGAGY	binds
YRRRGAGF	binds
YRRRGAGV	binds
YRRRGAGD	binds
YRRGSFGA	binds
FRRGGSVD	binds
FRRRGAVA	binds
FRRRGAVD	binds
YRRGSSVS	binds
YRRGSSVV	binds
YRRGSSVF	binds
FRRGGAAA	binds
FRRGGAAS	binds
YRRGGSAV	binds
YRRGGSAA	binds
VRRGGAAA	binds
VRRGGAAS	binds
YRRRGAVF	binds
YRRRGAVA	binds
YRRRGAVY	binds
YRRRGAVD	binds
VRRRGSWV	binds
FRRGGAWV	binds
FRRGGAWD	binds

Variant	non-specific binding call
FRRGGAWY	binds
YRRGGSVS	binds
YRRGGSVF	binds
YRRGGSVD	binds
YRRGGSVA	binds
DRRRGALD	binds
FRRGSSGS	binds
FRRGSSGD	binds
FRRGSSGA	binds
FRRGGALD	binds
YRRRGVAD	binds
YRRRGVAA	binds
FRRGGASA	binds
FRRGSAVA	binds
ARRGSSLD	no binding
DRRKAFSA	binds
ARRGGSVD	binds
SRRRGAWY	binds
FRRGSSVV	binds
ARRGSDVA	no binding
